Source: article PMC8216552
“And” between values parts separate entries of the source, which are not always exact repeats. Equal values may be shown once.

Assays:
[1] = biological target: stabilized soluble CON-S envelope trimer (stabilized CON-S SOSIP gp140) (HIV-1 (group M consensus))
[2] = substrate: CON-S gp120 with the N362 glycosylation site (HIV-1 (group M consensus))
[3] = substrate: CON-S gp120 (HIV-1 (group M consensus)); assay: ELISA; direct ELISA: HIV-1 envelope protein (2 ug/mL) in sodium bicarbonate buffer coated on 384-well plates overnight at 4 C; serially diluted antibodies 90 min; detected with HRP anti-IgG Fc; titres as area under the log-transformed curve (log AUC)
[4] = biological target: stabilized soluble CON-S envelope trimer (stabilized CON-S SOSIP gp140) (HIV-1 (group M consensus)); assay: negative stain electron microscopy; chimeric CON-S DS.SOSIP-664 trimers with a 10-fold molar excess of Fab, 1 h at room temperature; uranyl formate stain; 2D classes and 3D reconstruction (RELION)

B1: DH840.1 IgG (antibody, V domains shown)
VH: QVQLKESGPGLVRPSETLSLTCAVSGTSINSAYAWGWVRLPPGKGLEWIMTVYTSTGNTYSDPSLKSRVTISKDTSKNQFSLRLSSVTVEDTAVYFCARADGSDSGWPHFDNWGQGLLVTVSS
VL: EIMVTQSPATLSVSPGERATLSCRASQSVRNRIAWYQQKPGQSPRLLIYDASIRAPGIPDRLSGSGSGTEFTLTINSLEPSDVAVYFCQLEANWLTFGGGTKVEIK
With B1 the maximum percent neutralization of wild-type CON-S pseudovirus (TZM-bl cells) [1] was 83% and the maximum percent neutralization of CON-S pseudovirus with the N362 glycan (TZM-bl cells) [2] was 45%.

B2: DH840.1 W100bA (antibody, V domains shown)
VH: QVQLKESGPGLVRPSETLSLTCAVSGTSINSAYAWGWVRLPPGKGLEWIMTVYTSTGNTYSDPSLKSRVTISKDTSKNQFSLRLSSVTVEDTAVYFCARADGSDSGAPHFDNWGQGLLVTVSS
VL: EIMVTQSPATLSVSPGERATLSCRASQSVRNRIAWYQQKPGQSPRLLIYDASIRAPGIPDRLSGSGSGTEFTLTINSLEPSDVAVYFCQLEANWLTFGGGTKVEIK
Binder B2 has a percent reduction of binding against wild-type DH840.1 [3] of 64%.

B3: DH840.1 Fab (Fab, V domains shown)
VH: QVQLKESGPGLVRPSETLSLTCAVSGTSINSAYAWGWVRLPPGKGLEWIMTVYTSTGNTYSDPSLKSRVTISKDTSKNQFSLRLSSVTVEDTAVYFCARADGSDSGWPHFDNWGQGLLVTVSS
VL: EIMVTQSPATLSVSPGERATLSCRASQSVRNRIAWYQQKPGQSPRLLIYDASIRAPGIPDRLSGSGSGTEFTLTINSLEPSDVAVYFCQLEANWLTFGGGTKVEIK
In the case of B3, the percent of trimers bound by Fab [4] is reported as 33% and the stoichiometry N (Fab per trimer) [4] is reported as 1.

B4: DH842 Fab (Fab, V domains shown)
VH: QVQLQESGPGLMQPAETLSLTCAVSRDSIGSGYYAWGWFRQVPGKGLEWIVTIYTSTGNIYDESPLKSRVTISRDTSKNQFSLKLTSVTPADTAVYFCAREGCNTVFCSAGWFDVWGPGLLVTVSS
VL: QAVLTQPTALSASPGASARLTCTLRSGISVADYRIFWYQQRPGSPPRYLLNYRTDSDHHQGSGVPSRFSGSKDDSANTGFLVISGLQSEDEADYHCMIRHNTAYIFGGGTRLTLL
In the case of B4, the percent of analyzed Envs with one Fab bound [4] is reported as 34% and the percent of analyzed Envs with two Fabs bound [4] is reported as 53%.

B5: DH845.1 Fab (Fab, V domains shown)
VH: QVQLQESGPGLVKPSETLSLTCAVSGGSMSSVYQGWGWIRQPPGKGLEWIATTYTSTGNIYYNPSLKGRGTVSRDTSKNQFSLKLSAVTAADTAVYYCARLNLGDSGDYTGVSEYFDFWGQGALVTVSS
VL: AIQLTQSPSALSASVGDRVTISCRASQNIYSNLAWYQQKPGKAPKLLIFGASRLQSGIPSRFSGSGSGTDFTLTISSLQPEDSATYYCQQVYSNFYSFGQGTKVEIK
For B5, the stoichiometry N (Fabs per trimer) [4] was 2 and 3.

B6: DH846.1 Fab (Fab, V domains shown)
VH: QLQLQESGPGLVKPSETLSLTCDVSGVSISSNYGWGWIRQPPGKGLDWIVTIYGGTGNTYYAPSLEGRVAISKDASKNQFSLRLNSVTAADTAVYYCARKITYSSGWYYFDYWGQGVLVAVSS
VL: EIVMTQSPATLSLSPGERATLSCRASQSVSSRLAWYQQKPGQAPRLLIYDASNRATGIPDRFSGSGSGTEFTLTISGLEPEDVAVYFCQEDHNWSTFGQGTKVEIK
B6 was tested, and the stoichiometry N (Fabs per trimer) [4] was 2 and 3.
